Publication PMC8086558, “Membrane Interactions of the Peroxisomal Proteins PEX5 and PEX14” (Frontiers in Cell and Developmental Biology, 2021)

B1: PEX5 NTD (residues 1–315) (domain or fragment)
chain: not shown
notes: human PEX5, N-terminal intrinsically disordered domain, residues 1-315, codon-optimised synthetic gene; harbours eight WF-like motifs (W0-W7); No primer pair is printed for the 1-315 construct; also called PEX5 (1–315); Pex5 (1–315); source: E. coli BL21 (DE3), purified (Ni-NTA under urea lysis, SEC Superdex S75), lyophilized; not shown: His6, N-terminal, kept
B2: PEX14 NTD (residues 1–104) (domain or fragment, human, UniProt O75381 1-104, looked up)
chain: MASSEQAEQPSQPSSTPGSENVLPREPLIATAVKFLQNSRVRQSPLATRRAFLKKKGLTDEEIDMAFQQSGTAADEPSSLGPATQVVPVQPPHLISQPYSPAGS
notes: human PEX14, N-terminal region up to the transmembrane span, residues 1-104, codon-optimised synthetic gene; holds the globular helical domain (residues 16-80); also called PEX14 (1–104); Pex14 (1–104); source: E. coli BL21 (DE3), purified (Ni-NTA, TEV cleavage, reverse Ni2+ column, SEC Superdex S75); not shown: His6, N-terminal, cleaved

Experiments:
Details in all cases: both partners purified
[1] = target: B2; assay: ITC; 50 uM PEX5 (1-315) injected into the cell with 30 uM PEX14 (1-104); 25 °C; 20 mM NaP pH 6.5, 100 mM NaCl, no bicelles; triplicates; one-site model, number of sites set to 1/8
[2] = target: B2; assay: ITC; 50 uM PEX5 (1-315) injected into the cell with 30 uM PEX14 (1-104); 25 °C; 20 mM NaP pH 6.5, 100 mM NaCl with 44 uM DMPC/D7PC bicelles; triplicates; one-site model, number of sites set to 1/8
[3] = target: B1; assay: ITC; 50 uM PEX5 (1-315) injected into the cell with 30 uM PEX14 (1-104); 25 °C; 20 mM NaP pH 6.5, 100 mM NaCl, no bicelles; triplicates; one-site model, number of sites set to 1/8
[4] = target: B1; assay: ITC; 50 uM PEX5 (1-315) injected into the cell with 30 uM PEX14 (1-104); 25 °C; 20 mM NaP pH 6.5, 100 mM NaCl with 44 uM DMPC/D7PC bicelles; triplicates; one-site model, number of sites set to 1/8

dH [1]	stoichiometry N [1]	dH [2]	stoichiometry N [2]	Kd [3]	Kd [4]	Binder
-147 ± 7 kcal/mol	0.125	-92 ± 3 kcal/mol	0.125			B1
				147 ± 16 nM	260 ± 26 nM	B2
